Measured values reported in patent US20250019450A1 (DIAGONAL THERAPEUTICS, published 2025).

Target: human IL-12 receptor (IL-12Rβ1 and IL-12Rβ2) on HEK-Blue IL-12 cells (human, UniProt P42701 24-662; Q99665 24-862)
Assay: cell-based or functional assay

Sequence of human IL-12 receptor (IL-12Rβ1 and IL-12Rβ2) on HEK-Blue IL-12 cells (Q99665 24-862, chain 2 of 2, other chains not shown): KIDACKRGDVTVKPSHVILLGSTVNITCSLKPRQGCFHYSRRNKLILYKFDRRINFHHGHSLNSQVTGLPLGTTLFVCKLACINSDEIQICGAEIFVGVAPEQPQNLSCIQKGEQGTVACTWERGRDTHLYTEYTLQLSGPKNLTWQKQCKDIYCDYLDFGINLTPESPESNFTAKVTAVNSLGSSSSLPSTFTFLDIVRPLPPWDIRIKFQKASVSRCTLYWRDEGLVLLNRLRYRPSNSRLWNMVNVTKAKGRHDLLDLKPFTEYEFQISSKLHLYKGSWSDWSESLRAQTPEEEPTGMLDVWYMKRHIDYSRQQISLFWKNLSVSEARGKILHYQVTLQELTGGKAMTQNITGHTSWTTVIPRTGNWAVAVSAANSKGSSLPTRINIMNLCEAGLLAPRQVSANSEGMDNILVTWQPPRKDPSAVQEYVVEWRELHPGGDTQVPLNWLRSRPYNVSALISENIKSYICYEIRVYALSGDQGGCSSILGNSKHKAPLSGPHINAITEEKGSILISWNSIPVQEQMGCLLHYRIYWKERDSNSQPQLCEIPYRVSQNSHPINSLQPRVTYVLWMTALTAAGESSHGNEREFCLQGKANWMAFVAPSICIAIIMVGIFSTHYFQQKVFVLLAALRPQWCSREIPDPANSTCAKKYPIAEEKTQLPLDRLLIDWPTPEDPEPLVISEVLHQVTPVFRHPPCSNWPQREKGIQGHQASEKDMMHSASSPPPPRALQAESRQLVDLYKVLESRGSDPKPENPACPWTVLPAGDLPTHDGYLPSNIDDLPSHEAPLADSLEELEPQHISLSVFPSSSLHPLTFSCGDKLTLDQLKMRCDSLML

Binder | Max Absorbance | EC50
DGL479 (bispecific antibody, V domains shown) V domain 1: QVQLVESGGGLVQAGGSLRLSCAAPGRYAVGWFRQAPGKEYEFVAAITVSGGSKYYEDSVKGRFAISRDNAKNTVYLQMNSLKAEDTAVYYCAARTPKFGSGWYNRRGEYDYWGQGTQVTVEP V domain 2: QVQLVESGGGLVQAGGSLRLSCAASGRTFSSYAMGWFRQAPGKEREFVSAISWSGLSTYYVESVQGRFTISRDNAKNTVYLQMNSLKPEDTAVYYCAASRIYTNYVARSYEYDDWGQGTQVTVEP | 0.29 | 
DGL490 (bispecific antibody, V domains shown) V domain 1: QVQLVESGGGLVQAGGSLRLSCAASARIFNSYAVAWFRQTPGKEREFVASISWSGGSTNYADSVKGRFTISRDNAKNTVFLQMNSLKPADTAVYYCAADRNYYPSVLGKYTYWGQGTQVTVEP V domain 2: QVQLVESGGGLVQAGGSLRLSCAASGRTFSSYAMGWFRQAPGKEREFVSAISWSGLSTYYVESVQGRFTISRDNAKNTVYLQMNSLKPEDTAVYYCAASRIYTNYVARSYEYDDWGQGTQVTVEP | 0.25 | 
DGL497 (bispecific antibody, V domains shown) V domain 1: EVQLVESGGGLVQAGGSLRLSCAASGLTFRNYAMAWFRQAPGKEREFVAGITWGGGLTHYVDSVKGRFTISRDNGKNTVYLQMNSLKSEDTAVYYCAGKTQGSTWYHLTPDGYDYWGQGTQVTVEP V domain 2: QVQLVESGGGLVQPGGSLRLSCAASGFTFSNYAMSWIRQGPERGFEWVSRINSGGGTTSYADSVKGRFTISRDNAKNTLYLQMNSLKPEDTAVYYCAKHSHPDYSSNYYRPGQGTQVTVEP | 0.32 | 
DGL505 (bispecific antibody, V domains shown) V domain 1: EVQLVESGGGLVQAGGSLRLSCAASGLTFRNYAMAWFRQAPGKEREFVAGITWGGGLTHYVDSVKGRFTISRDNGKNTVYLQMNSLKSEDTAVYYCAGKTQGSTWYHLTPDGYDYWGQGTQVTVEP V domain 2: QVQLVESGGGLVQLGDSLRLSCAASGRGFSSWTMAWFRQALGKRREFVAAITATGARTSSAESEGRFTISRDNAKNMVFLQMNSLKAEDTAVYYCAATGIASWDPGMADKYTYWGQGTQVTVEP | 0.26 | 
DGL508 (bispecific antibody, V domains shown) V domain 1: EVQLVESGGGLVQAGGSLRLSCAASGLTFRNYAMAWFRQAPGKEREFVAGITWGGGLTHYVDSVKGRFTISRDNGKNTVYLQMNSLKSEDTAVYYCAGKTQGSTWYHLTPDGYDYWGQGTQVTVEP V domain 2: QVQLVESGGGLVQAGGSLRLSCAASGRTFSRYIMGWFRQATGKEREFVAAISWSGLSTHYADSVQGRFTISRDNAENTVYLQMNSLKPEDTAVYYCAADRHWETRLLPREYDYWGQGTQVTVEP | 0.28 | 
DGL506 (bispecific antibody, V domains shown) V domain 1: EVQLVESGGGLVQAGGSLRLSCAASGLTFRNYAMAWFRQAPGKEREFVAGITWGGGLTHYVDSVKGRFTISRDNGKNTVYLQMNSLKSEDTAVYYCAGKTQGSTWYHLTPDGYDYWGQGTQVTVEP V domain 2: QVQLVESGGGLVQAGGSLKLSCAASGGTFSSYAMGWFRQAPGKEREFVAAIMRSGGTTVYVNSVKGRFTVSRDNAKNTVYLQMNSLKPEDAAVYYCAAGRPVSRTSYYTYTYPHDYDYWGQGTQVSVEP | 0.31 | 
DGL603 (bispecific antibody, V domains shown) V domain 1: EVQLVESGGGLVQPGGSLRLSCAASGFTFQNYAMSWLRKAPGEGLEWVSVINSGGGSTLYADSVKGRFTISRDNAKNTLYLQMHSLKSEDTAVYFCAKRRDDSTFGSLLYTHRGQGTQVTVEP V domain 2: QVQLVESGGGLVQPGGSLRLSCAASGFTFSNYAMSWVRQAPGKGLEWVSAINSDGTSTSYADSVKGQFTISRDNAKNTLYLQMNSLKPEDTAVYYCTKWEGDTDSDYKFKDYWGQGTQVTVEP | 0.31 | 
DGL461 (bispecific antibody, V domains shown) V domain 1: EVQLVESGGGLVQPGGSLRLSCAASGFTFQNYAMSWLRKAPGEGLEWVSVINSGGGSTLYADSVKGRFTISRDNAKNTLYLQMHSLKSEDTAVYFCAKRRDDSTFGSLLYTHRGQGTQVTVEP V domain 2: QVQLVESGGGLVQPGGSLRLSCAASGFTFEPYDMSWFRQAPGKGPEWVSAIDKGGGAGATYYADSVKGRFTISRDNAKKTLYLQMKSLKPEDTAVYYCAITAGPYSDSTPRVAYRGEGTQVTVEP | 0.31 | 
DGL518 (bispecific antibody, V domains shown) V domain 1: EVQLVESGGGLVQPGGSLRLFCAASRSIFNINIMGWYRQAPGKQREWLASITSGGSTFYADSVKDRFTISRDSVKNTVYLQMNSLKPEDTAAYYCNRYRSVPLNTVYPWGQGTLVTVEP V domain 2: QVQLVESGGGLVRPGGSLRLSCAASGFTFSSNGMHWFRQAPGKGLEWVSSIGSGGTSIYYADSVKGRFTISRDNAKNTLYLQMNSLKSDDTAVYYCSKEVTGATRGQGTQVTVEP | 0.27 | 
DGL397 (bispecific antibody, human IgG1, kappa) heavy 1: not shown heavy 2: QVQLVESGGGLVQAGGSLRLSCAASGRIFSAYRMGWFRQAPGKEREFVAGITWRGQTTYYAASVKGRFTISKDNAKKTVYLQMNSLKPEETAVYYCAVETNGLGRWDRPSEYDYWGQGTQVTVEPKSSDKTHTCPPCPAPEAAGAPSVFLFPPKPKDTLMISRTPEVTCVVVDVSHEDPEVKFNWYVDGVEVHNAKTKPREEQYNSTYRVVSVLTVLHQDWLNGKEYKCKVSNKALPAPIEKTISKAKGQPREPQVCTLPPSRDELTKNQVSLSCAVKGFYPSDIAVEWESNGQPENNYKTTPPVLDSDGSFFLVSKLTVDKSRWQQGNVFSCSVMHEALHNRFTQKSLSLSPG light: DIQLTQSPSFLSASVGDRVTITCRASQGISSYLAWYQQQPGKPPKLLIYAASTLHSGVPSRFSGSGSGTEFTLTISSLQPEDFATYYCQQLNRYPYTCGQGTKLEIKRTVAAPSVFIFPPSDEQLKSGTASVVCLLNNFYPREAKVQWKVDNALQSGNSQESVTEQDSKDSTYSLSSTLTLSKADYEKHKVYACEVTHQGLSSPVTKSFNRGEC | 0.28 | 1.6e-11 M (implied)
DGL395 (bispecific antibody, human IgG1, kappa) heavy 1: not shown heavy 2: QVQLVESGGGLVQAGGSLRLSCAASGRTFSSYAMGWFRQAPGKEREFVSAISWSGLSTYYVESVQGRFTISRDNAKNTVYLQMNSLKPEDTAVYYCAASRIYTNYVARSYEYDDWGQGTQVTVEPKSSDKTHTCPPCPAPEAAGAPSVFLFPPKPKDTLMISRTPEVTCVVVDVSHEDPEVKFNWYVDGVEVHNAKTKPREEQYNSTYRVVSVLTVLHQDWLNGKEYKCKVSNKALPAPIEKTISKAKGQPREPQVCTLPPSRDELTKNQVSLSCAVKGFYPSDIAVEWESNGQPENNYKTTPPVLDSDGSFFLVSKLTVDKSRWQQGNVFSCSVMHEALHNRFTQKSLSLSPG light: DIQLTQSPSFLSASVGDRVTITCRASQGISSFLAWYQQKPGKAPKLLIYAASTLQSGVPSRFSGSGSGTEFTLTISSLQPEDFATYYCQQLNGYPFTFGPGTKVDIKRTVAAPSVFIFPPSDEQLKSGTASVVCLLNNFYPREAKVQWKVDNALQSGNSQESVTEQDSKDSTYSLSSTLTLSKADYEKHKVYACEVTHQGLSSPVTKSFNRGEC | 0.26 | 2.3e-10 M (implied)
DGL405 (bispecific antibody, human IgG1, kappa) heavy 1: not shown heavy 2: QVQLVESGGGLVQAGGSLRLSCAASGRIFSAYRMGWFRQAPGKEREFVAGITWRGQTTYYAASVKGRFTISKDNAKKTVYLQMNSLKPEETAVYYCAVETNGLGRWDRPSEYDYWGQGTQVTVEPKSSDKTHTCPPCPAPEAAGAPSVFLFPPKPKDTLMISRTPEVTCVVVDVSHEDPEVKFNWYVDGVEVHNAKTKPREEQYNSTYRVVSVLTVLHQDWLNGKEYKCKVSNKALPAPIEKTISKAKGQPREPQVCTLPPSRDELTKNQVSLSCAVKGFYPSDIAVEWESNGQPENNYKTTPPVLDSDGSFFLVSKLTVDKSRWQQGNVFSCSVMHEALHNRFTQKSLSLSPG light: DIQLTQSPSFLSASVGYRVTITCRASQGISSYLAWYQQKPGKAPQLLIYAASTLQSGVPSRFSGRGSGTEFTLTISSLQPEDFATYYCQQLNGYPFTFGPGTKVNIKRTVAAPSVFIFPPSDEQLKSGTASVVCLLNNFYPREAKVQWKVDNALQSGNSQESVTEQDSKDSTYSLSSTLTLSKADYEKHKVYACEVTHQGLSSPVTKSFNRGEC | 0.26 | 
DGL594 (bispecific antibody, V domains shown) V domain 1: EVQLVESGGGLVQAGGSLRLSCAASGSKFSFNAMGWYRQTPGKQRELVAIIINGDMINYADSVKGRFTISRDNAKNTMYLQMNSLKPEDTAVYYCKMTRYVYDYWGQGTQVTVEP V domain 2: QVQLVESGGGLVQPGGSLRLSCAASGFTFSSKAMHWFRQAPGKGLEWVSSINSGGAITYYKDSVKGRFTVSRDNAKNILYLEMNSLKPEDTALYYCATDTDGRTRGQGTQVTVEP | 0.33 | 
DGL587 (bispecific antibody, V domains shown) V domain 1: QVQLVESGGGLVQAGGSLRLSCAASGRTFSSYVMGWFRQAPGQEREFVAAIMRNGIMTYYADSVKGRFTISRDNAKNTVYLQMNTLKPDDTAVYYCAAASRVGVSISQSSSYTSWGQGTQVTVEP V domain 2: QVQLVESGGGLVQPGGSLRLSCAASGFTFSSKAMHWFRQAPGKGLEWVSSINSGGAITYYKDSVKGRFTVSRDNAKNILYLEMNSLKPEDTALYYCATDTDGRTRGQGTQVTVEP | 0.32 | 
DGL496 (bispecific antibody, V domains shown) V domain 1: EVQLVESGGGLVQAGGSLRLSCAASGLTFRNYAMAWFRQAPGKEREFVAGITWGGGLTHYVDSVKGRFTISRDNGKNTVYLQMNSLKSEDTAVYYCAGKTQGSTWYHLTPDGYDYWGQGTQVTVEP V domain 2: QVQLVESGGGLVQPGGSLRLSCAASGFTFSSKAMHWFRQAPGKGLEWVSSINSGGAITYYKDSVKGRFTVSRDNAKNILYLEMNSLKPEDTALYYCATDTDGRTRGQGTQVTVEP | 0.27 | 
DGL413 (bispecific antibody, human IgG1, kappa) heavy 1: not shown heavy 2: QVQLVESGGGLVQAGGSLRLSCAASGRTFSRYRMGWFRQAPGKEREFVAAITKSGATTYDADSVKGRFTISRDNAKNTLYLQMNSLKPEDTAVYYCAASYHSNWWPKNADEYAYWGQGTQVTVEPKSSDKTHTCPPCPAPEAAGAPSVFLFPPKPKDTLMISRTPEVTCVVVDVSHEDPEVKFNWYVDGVEVHNAKTKPREEQYNSTYRVVSVLTVLHQDWLNGKEYKCKVSNKALPAPIEKTISKAKGQPREPQVCTLPPSRDELTKNQVSLSCAVKGFYPSDIAVEWESNGQPENNYKTTPPVLDSDGSFFLVSKLTVDKSRWQQGNVFSCSVMHEALHNRFTQKSLSLSPG light: DIQMTQSPSSLSASVGDRVTITCRASQGIGNYLAWFQQRPGKAPKSLIYAASSLQSGVPSKFSGSGSGTDFTLTISSLQPADFAIYYCQQYNIYPYTFGPGTRLEIKRTVAAPSVFIFPPSDEQLKSGTASVVCLLNNFYPREAKVQWKVDNALQSGNSQESVTEQDSKDSTYSLSSTLTLSKADYEKHKVYACEVTHQGLSSPVTKSFNRGEC | 0.29 | 
